Measured values as given in the supplement of paper PMC10065799, “High-throughput profiling of sequence recognition by tyrosine kinases and SH2 domains using bacterial peptide display” (eLife, 2023).

Experiments:
Grb2 SH2 = Grb2 SH2 (UniProt P62993); assay: SH2 binding enrichment of the phosphorylated peptide, bacterial display (enrichment ratio); higher = better substrate or ligand; peptides without Tyr show the background
c-Src SH2 = assay: as above
SHP2-C SH2 = assay: as above
FGFR3 = FGFR3 (UniProt P22607); assay: phosphorylation enrichment, bacterial display (enrichment ratio); higher = better substrate or ligand; peptides without Tyr show the background
Fyn = Fyn (UniProt P06241); assay: as above
Chain of Fyn (P06241 whole entry, looked up): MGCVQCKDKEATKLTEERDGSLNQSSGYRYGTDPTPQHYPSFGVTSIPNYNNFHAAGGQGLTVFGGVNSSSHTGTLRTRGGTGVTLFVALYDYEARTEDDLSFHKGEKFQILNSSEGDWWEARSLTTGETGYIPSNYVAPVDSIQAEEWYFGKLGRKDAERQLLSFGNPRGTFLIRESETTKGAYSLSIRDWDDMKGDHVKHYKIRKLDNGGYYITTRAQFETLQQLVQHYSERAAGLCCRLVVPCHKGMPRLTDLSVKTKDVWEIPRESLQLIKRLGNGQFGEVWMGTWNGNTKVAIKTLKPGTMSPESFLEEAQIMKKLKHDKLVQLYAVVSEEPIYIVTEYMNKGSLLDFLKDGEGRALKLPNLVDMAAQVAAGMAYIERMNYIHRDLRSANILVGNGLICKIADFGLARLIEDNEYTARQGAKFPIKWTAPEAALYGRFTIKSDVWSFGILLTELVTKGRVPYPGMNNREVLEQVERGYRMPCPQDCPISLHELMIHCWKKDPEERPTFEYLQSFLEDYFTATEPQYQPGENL

Jak2 = Jak2 (UniProt O60674); assay: as above
AncSZ = assay: as above
EPHB1 = EPHB1 (UniProt P54762); assay: as above
Chain of EPHB1 (P54762 whole entry, looked up): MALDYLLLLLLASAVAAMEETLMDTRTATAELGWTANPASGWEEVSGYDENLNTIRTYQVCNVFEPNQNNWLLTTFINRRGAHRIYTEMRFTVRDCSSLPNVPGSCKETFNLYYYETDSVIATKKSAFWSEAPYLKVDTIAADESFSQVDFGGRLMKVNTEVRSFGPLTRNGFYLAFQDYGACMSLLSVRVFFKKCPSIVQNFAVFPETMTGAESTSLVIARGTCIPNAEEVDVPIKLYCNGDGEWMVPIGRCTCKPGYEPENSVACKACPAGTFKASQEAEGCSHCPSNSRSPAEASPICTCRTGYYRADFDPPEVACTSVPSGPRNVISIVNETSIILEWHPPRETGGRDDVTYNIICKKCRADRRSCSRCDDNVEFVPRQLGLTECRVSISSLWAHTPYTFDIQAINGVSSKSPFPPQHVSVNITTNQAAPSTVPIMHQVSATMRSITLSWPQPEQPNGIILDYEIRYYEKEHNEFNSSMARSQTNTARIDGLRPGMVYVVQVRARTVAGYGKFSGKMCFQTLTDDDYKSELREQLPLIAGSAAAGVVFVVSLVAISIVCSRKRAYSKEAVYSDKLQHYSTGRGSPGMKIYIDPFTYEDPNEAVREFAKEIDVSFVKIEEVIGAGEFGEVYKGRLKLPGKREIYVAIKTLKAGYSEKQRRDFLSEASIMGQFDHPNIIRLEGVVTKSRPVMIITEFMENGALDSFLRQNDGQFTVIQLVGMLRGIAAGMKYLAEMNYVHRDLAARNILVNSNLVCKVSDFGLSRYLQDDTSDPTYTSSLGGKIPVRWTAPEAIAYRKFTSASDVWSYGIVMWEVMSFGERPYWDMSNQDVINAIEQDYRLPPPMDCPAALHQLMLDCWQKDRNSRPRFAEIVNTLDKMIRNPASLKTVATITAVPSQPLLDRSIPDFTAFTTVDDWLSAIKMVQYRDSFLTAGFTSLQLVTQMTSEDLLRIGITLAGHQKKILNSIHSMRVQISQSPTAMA

c-Src = assay: as above
Fes = Fes (UniProt P07332); assay: as above
Chain of Fes (P07332 whole entry, looked up): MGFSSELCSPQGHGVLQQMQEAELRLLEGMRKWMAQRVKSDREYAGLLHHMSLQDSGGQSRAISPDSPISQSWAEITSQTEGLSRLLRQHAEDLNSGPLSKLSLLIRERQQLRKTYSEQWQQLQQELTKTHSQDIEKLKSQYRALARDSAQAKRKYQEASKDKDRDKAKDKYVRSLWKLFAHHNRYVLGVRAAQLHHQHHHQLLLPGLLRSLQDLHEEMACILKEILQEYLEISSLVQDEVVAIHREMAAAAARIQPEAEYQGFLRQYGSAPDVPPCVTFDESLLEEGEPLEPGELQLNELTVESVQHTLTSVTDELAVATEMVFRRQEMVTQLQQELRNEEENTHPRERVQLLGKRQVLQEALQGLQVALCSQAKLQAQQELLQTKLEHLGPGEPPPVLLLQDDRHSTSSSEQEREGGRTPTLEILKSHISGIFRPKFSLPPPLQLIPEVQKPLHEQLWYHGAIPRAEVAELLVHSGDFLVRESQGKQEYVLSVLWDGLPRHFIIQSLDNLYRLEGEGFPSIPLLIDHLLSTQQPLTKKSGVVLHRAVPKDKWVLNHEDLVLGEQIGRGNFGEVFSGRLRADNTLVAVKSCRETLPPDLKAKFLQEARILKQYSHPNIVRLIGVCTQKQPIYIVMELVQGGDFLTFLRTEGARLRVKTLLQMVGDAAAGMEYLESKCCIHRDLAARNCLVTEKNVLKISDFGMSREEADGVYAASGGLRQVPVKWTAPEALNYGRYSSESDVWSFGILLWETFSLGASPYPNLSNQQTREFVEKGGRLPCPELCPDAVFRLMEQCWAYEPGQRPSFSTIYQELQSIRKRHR

FGFR1 = FGFR1 (UniProt P11362); assay: as above
Chain of FGFR1 (P11362 whole entry, looked up): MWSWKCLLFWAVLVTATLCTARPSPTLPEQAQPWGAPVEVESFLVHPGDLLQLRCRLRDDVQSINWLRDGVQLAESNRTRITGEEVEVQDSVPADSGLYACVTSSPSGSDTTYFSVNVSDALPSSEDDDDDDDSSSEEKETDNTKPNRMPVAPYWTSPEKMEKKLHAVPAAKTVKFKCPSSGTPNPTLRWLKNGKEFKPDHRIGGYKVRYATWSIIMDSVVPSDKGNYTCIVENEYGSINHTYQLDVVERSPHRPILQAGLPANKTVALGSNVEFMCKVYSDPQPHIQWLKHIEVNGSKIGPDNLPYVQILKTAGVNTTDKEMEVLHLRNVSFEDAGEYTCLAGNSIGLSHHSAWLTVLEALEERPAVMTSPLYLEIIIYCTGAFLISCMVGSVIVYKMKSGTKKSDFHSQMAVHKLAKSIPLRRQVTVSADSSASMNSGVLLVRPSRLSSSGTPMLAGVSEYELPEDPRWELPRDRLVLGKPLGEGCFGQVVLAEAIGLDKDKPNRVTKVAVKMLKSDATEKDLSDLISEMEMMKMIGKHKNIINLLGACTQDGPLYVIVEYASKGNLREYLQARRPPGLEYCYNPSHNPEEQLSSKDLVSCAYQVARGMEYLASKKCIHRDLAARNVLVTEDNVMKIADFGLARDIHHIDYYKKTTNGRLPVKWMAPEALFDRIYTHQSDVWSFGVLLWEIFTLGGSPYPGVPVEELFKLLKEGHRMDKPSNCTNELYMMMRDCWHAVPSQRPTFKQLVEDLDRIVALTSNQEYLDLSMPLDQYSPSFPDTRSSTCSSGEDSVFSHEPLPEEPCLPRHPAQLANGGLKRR

MERTK = MERTK (UniProt Q12866); assay: as above
Chain of MERTK (Q12866 whole entry, looked up): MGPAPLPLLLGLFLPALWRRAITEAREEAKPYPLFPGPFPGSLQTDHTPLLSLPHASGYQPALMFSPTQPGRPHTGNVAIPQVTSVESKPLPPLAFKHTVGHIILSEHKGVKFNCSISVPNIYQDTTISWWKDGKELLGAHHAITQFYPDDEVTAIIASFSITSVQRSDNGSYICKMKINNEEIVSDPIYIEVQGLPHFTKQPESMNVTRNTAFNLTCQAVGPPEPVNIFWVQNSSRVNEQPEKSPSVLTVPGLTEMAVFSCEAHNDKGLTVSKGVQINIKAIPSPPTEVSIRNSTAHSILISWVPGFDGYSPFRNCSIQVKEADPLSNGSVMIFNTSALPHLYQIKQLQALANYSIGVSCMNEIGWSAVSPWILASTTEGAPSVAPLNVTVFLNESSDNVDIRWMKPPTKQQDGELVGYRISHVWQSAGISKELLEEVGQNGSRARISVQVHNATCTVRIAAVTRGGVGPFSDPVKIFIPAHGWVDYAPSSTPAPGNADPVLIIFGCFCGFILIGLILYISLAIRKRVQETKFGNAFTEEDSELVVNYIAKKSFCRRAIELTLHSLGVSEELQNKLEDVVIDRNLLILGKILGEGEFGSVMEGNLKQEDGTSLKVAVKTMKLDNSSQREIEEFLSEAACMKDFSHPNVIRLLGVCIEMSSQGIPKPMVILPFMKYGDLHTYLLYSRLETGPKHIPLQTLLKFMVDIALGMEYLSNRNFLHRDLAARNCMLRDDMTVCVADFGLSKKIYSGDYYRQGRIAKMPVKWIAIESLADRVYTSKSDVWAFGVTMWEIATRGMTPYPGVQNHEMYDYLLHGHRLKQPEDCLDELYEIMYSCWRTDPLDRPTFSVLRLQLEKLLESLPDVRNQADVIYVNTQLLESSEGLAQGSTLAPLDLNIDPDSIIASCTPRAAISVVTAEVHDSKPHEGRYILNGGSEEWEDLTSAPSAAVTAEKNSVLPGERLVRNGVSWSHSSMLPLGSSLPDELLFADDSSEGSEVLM

Hck = Hck (UniProt P08631); assay: as above
Chain of Hck (P08631 whole entry, looked up): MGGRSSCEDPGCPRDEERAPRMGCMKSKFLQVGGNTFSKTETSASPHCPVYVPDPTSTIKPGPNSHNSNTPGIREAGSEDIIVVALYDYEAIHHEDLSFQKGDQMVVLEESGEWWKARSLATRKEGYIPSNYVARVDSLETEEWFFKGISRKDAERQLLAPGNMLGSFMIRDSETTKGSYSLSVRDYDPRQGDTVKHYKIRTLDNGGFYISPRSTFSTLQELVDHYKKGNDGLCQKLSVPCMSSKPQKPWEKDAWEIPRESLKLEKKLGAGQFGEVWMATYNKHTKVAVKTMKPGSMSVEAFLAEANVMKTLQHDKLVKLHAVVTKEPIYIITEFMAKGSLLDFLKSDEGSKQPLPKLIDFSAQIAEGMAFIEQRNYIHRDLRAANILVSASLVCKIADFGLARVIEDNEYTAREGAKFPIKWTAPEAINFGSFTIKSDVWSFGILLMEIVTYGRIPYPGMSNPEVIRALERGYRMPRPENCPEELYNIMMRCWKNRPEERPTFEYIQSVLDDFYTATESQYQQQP

Fer (mouse) = assay: as above
c-Abl (mouse) = assay: as above
EPHB2 = EPHB2 (UniProt P29323); assay: as above
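Throughout, for SH2 binding enrichment of the phosphorylated peptide, bacterial display: peptide library displayed on the E. coli surface as eCPX fusions, selected cells deep-sequenced, score is each peptide's frequency after selection divided by its frequency in the input.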
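Throughout, for phosphorylation enrichment, bacterial display: 11-residue human phosphosite peptides and single-mutation variants displayed on the E. coli surface, counted by deep sequencing, each peptide's frequency after selection divided by its frequency in the unselected input library; frequency after pTyr selection over input frequency; kinase dosed for 20-30% of maximal phosphorylation in three min.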

Chain of Grb2 SH2 (P62993 whole entry, looked up): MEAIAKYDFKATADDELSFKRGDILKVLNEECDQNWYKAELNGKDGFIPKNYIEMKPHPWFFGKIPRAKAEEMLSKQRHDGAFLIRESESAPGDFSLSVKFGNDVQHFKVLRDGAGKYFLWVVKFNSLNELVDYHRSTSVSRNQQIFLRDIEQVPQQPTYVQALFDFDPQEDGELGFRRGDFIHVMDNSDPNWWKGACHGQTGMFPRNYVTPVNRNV

Sequence | SH2 binding enrichment (Grb2 SH2) | SH2 binding enrichment (c-Src SH2) | SH2 binding enrichment (SHP2-C SH2) | phosphorylation enrichment (FGFR3) | phosphorylation enrichment (Fyn) | phosphorylation enrichment (Jak2) | phosphorylation enrichment (AncSZ) | phosphorylation enrichment (EPHB1) | phosphorylation enrichment (c-Src) | phosphorylation enrichment (Fes) | phosphorylation enrichment (FGFR1) | phosphorylation enrichment (MERTK) | phosphorylation enrichment (Hck) | phosphorylation enrichment (Fer (mouse)) | phosphorylation enrichment (c-Abl (mouse)) | phosphorylation enrichment (EPHB2)
SHISGYATLRR [RAPH1_Y1226] | 0.697 | 0.567 | 1.65 | 0.562 | 0.392 | 0.628 | 0.941 | 0.374 | 0.382 | 0.753 | 0.392 | 0.438 | 0.4 | 0.399 | 0.43 | 0.391
SIKDKYVMALF [KCNH2_Y611_T613M_YF] | 1.06 | 0.699 | 0.845 | 0.574 | 0.429 | 0.721 | 0.664 | 0.405 | 0.393 | 0.888 | 0.535 | 0.447 | 0.496 | 0.385 | 0.558 | 0.491
SIKDKYVTALY [KCNH2_Y611] | 0.747 | 0.437 | 0.581 | 0.472 | 0.489 | 0.597 | 0.639 | 0.463 | 0.575 | 0.72 | 0.387 | 0.506 | 0.785 | 0.389 | 0.507 | 0.403
SIKDKYVTAVY [KCNH2_Y611_L615V] | 0.808 | 0.48 | 0.664 | 0.638 | 0.545 | 0.585 | 0.565 | 0.446 | 0.49 | 0.705 | 0.498 | 0.443 | 0.552 | 0.431 | 0.441 | 0.423
SIKDKYVTVLF [KCNH2_Y611_A614V_YF] | 1.04 | 0.669 | 10.8 | 0.646 | 0.442 | 0.743 | 0.763 | 0.481 | 0.361 | 0.91 | 0.482 | 0.375 | 0.546 | 0.392 | 0.549 | 0.48
SIRYNYLLDVL [FGFR4_Y237] | 0.789 | 1.7 | 0.747 | 0.636 | 0.495 | 0.674 | 0.943 | 0.394 | 0.443 | 0.745 | 0.479 | 0.509 | 0.603 | 0.47 | 0.821 | 0.524
SKHHLYSDLQT [PTCHD1_Y84_R82H] | 1.06 | 10 | 0.966 | 0.589 | 0.505 | 0.887 | 0.487 | 0.462 | 0.634 | 0.786 | 0.55 | 2.23 | 0.985 | 1.91 | 0.51 | 0.389
SKKSTYQALLD [GANC_Y43] | 0.788 | 0.555 | 0.595 | 0.405 | 0.447 | 0.907 | 0.563 | 0.394 | 0.423 | 0.541 | 0.416 | 0.403 | 0.433 | 0.305 | 0.382 | 0.369
SKNFTYIWWLN [PSG4_Y271_YF] | 0.646 | 0.409 | 0.513 | 0.884 | 0.416 | 1.26 | 1.18 | 0.675 | 0.402 | 1.36 | 0.498 | 0.391 | 0.435 | 0.508 | 0.78 | 0.611
SKNSKCNAEST [PSEN1_Y315_Y315C] | 0.913 | 0.546 | 0.754 | 0.486 | 0.379 | 0.51 | 0.546 | 0.48 | 0.383 | 0.768 | 0.769 | 0.368 | 0.499 | 0.508 | 0.566 | 0.463
SLALFYRKVFH [RBL1_Y792_YF] | 0.767 | 0.454 | 0.876 | 0.784 | 0.502 | 1.11 | 1.36 | 0.637 | 0.409 | 1.26 | 0.532 | 0.385 | 0.441 | 0.494 | 0.535 | 0.569
SLALFYRKVYH [RBL1_Y792] | 0.689 | 0.522 | 0.795 | 0.776 | 0.481 | 1.14 | 1.23 | 0.667 | 0.379 | 1.23 | 0.575 | 0.408 | 0.518 | 0.566 | 0.593 | 0.643
SLFNGYVFSGV [NEIL3_Y71_YF] | 0.71 | 0.967 | 0.719 | 0.584 | 0.451 | 0.908 | 0.779 | 0.514 | 0.418 | 0.77 | 0.562 | 0.472 | 0.555 | 0.494 | 0.624 | 0.567
SLFNGYVYSGV [NEIL3_Y71] | 1.03 | 1.91 | 2.5 | 0.634 | 5.75 | 1.58 | 1.04 | 0.555 | 4.91 | 0.978 | 0.624 | 0.929 | 4.49 | 0.864 | 0.695 | 0.66
SLLPDYEDEEE [ZNF830_Y159] | 0.942 | 0.601 | 0.776 | 0.782 | 0.646 | 1.01 | 1.47 | 0.744 | 0.556 | 1.28 | 0.583 | 0.631 | 0.673 | 0.64 | 0.647 | 0.829
SNFRAYATEPQ [TNNI3_Y29_H34Q_YF] | 0.806 | 0.419 | 0.556 | 0.494 | 0.427 | 0.565 | 0.577 | 0.468 | 0.346 | 0.869 | 0.355 | 0.477 | 0.518 | 0.442 | 0.585 | 0.408
